The assay deals with fibronectin (FN) from human plasma (human) (UniProt P02751).
Chain of UniProt P02751 (P02751 32-2477): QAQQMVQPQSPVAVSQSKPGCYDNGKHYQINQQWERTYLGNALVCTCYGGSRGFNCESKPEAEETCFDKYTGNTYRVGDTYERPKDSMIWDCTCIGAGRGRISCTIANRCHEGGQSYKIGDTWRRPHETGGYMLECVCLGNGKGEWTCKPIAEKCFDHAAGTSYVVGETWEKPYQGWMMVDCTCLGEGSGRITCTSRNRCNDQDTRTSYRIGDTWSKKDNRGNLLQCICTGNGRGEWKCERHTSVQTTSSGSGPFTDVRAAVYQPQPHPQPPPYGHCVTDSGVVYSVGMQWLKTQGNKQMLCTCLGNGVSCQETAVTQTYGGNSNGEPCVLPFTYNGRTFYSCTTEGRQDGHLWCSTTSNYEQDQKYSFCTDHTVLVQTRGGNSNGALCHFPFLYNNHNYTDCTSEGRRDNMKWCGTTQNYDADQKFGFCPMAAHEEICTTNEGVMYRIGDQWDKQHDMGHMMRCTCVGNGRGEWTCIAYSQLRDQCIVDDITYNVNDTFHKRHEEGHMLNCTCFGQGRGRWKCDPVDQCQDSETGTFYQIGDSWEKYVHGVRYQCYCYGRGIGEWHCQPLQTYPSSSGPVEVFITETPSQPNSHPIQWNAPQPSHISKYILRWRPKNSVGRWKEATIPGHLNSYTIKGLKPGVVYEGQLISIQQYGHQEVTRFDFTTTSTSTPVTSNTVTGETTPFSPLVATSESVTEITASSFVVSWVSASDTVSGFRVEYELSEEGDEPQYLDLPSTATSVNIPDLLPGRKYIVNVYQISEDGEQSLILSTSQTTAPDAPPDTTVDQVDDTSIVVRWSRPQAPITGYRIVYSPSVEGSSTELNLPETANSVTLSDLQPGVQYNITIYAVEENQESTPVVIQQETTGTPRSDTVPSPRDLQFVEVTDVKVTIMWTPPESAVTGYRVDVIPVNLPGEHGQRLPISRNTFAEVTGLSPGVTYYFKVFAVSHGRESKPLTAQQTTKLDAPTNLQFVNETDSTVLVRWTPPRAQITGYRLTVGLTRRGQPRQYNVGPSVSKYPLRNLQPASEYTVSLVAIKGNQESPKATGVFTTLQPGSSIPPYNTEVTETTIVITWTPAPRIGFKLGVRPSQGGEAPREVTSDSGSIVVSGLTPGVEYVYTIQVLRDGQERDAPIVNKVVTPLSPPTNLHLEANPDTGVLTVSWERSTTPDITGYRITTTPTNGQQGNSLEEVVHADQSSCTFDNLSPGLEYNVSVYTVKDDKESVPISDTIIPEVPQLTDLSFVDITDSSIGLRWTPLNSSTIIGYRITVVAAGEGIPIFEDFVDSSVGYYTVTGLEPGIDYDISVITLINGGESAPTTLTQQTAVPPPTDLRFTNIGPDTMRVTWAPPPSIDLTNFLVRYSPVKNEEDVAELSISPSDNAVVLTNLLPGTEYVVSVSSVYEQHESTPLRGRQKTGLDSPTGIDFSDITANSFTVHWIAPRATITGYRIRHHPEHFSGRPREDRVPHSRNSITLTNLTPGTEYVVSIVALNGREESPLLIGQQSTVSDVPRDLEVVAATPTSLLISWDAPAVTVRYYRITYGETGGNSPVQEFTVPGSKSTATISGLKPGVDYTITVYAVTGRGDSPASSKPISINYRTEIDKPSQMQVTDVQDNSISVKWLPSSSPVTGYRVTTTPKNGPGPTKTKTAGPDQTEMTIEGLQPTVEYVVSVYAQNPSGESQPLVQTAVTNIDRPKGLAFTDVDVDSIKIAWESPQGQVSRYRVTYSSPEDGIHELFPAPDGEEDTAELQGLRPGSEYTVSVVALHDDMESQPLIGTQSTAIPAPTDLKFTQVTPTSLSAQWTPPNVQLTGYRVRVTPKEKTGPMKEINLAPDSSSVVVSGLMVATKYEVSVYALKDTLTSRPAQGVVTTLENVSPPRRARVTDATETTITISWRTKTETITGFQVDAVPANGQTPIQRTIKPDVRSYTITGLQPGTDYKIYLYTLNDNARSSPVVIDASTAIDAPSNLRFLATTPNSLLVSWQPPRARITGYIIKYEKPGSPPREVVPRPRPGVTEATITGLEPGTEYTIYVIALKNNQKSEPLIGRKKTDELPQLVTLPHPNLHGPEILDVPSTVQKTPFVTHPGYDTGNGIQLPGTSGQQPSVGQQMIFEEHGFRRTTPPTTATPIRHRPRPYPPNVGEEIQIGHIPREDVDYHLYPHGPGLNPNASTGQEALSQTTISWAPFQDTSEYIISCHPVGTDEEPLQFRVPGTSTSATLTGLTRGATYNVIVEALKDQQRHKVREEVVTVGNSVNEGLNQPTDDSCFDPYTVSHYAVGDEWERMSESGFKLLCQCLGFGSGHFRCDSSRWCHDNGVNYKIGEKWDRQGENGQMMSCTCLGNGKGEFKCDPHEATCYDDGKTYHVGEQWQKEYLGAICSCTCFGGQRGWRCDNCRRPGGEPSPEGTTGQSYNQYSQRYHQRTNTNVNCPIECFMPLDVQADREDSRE

B1: BMP-2 (bone morphogenetic protein 2) (ligand)
chain: QAKHKQRKRLKSSCKRHPLYVDFSDVGWNDWIVAPPGYHAFYCHGECPFPLADHLNSTNHAIVQTLVNSVNSKIPKACCVPTELSAISMLYLDENEKVVLKNYQDMVVEGCGCR
With B1, the surface density of BMP-2 on PEA-FN stood at 8 ng/cm2.

Values taken from paper doi:10.1101/2022.07.28.501818.
